From the nanobody polyreactivity screen of Harvey et al. (2022)

Assay: yeast display, Sf9 membrane polyspecificity reagent, FACS + sequencing; frameworks hold sequencing errors
Outline: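 Genes from sorted yeast were amplified by colony PCR, read by MiSeq 2 × 250 sequencing and filtered on CDR length. These cells carried a synthetic nanobody library in Saccharomyces cerevisiae BJ5465 and were sorted by FACS into low and high (top ~1%) gates on anti-HA and streptavidin fluorescence. Polyreactivity is labelled according to the gate of origin.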

Sequence	polyreactivity (PSR sort gate)
QVQLVESGGGLVQAGGRLRLSCAASGSTLDPYAMGLYRQAPGKERELVAAITISGGTTYNADSVKGRFTISRDNAKNTVYLQMNSMKPEDTAVYYCAAEGTYVTLGYYNLDVRYDYWGQGTQVTVSS	low polyreactivity
QVQLVESGGGLVQAGGRLRLSCAASGYTFPLYARGWYRQAPGKERELVADINIGGASSYYADSVKGRVTISRDNAKKTVYLQMNSLKPEDTAVYYCAKEYYDGYFPTFDYDYWGQGTQVTVSS	low polyreactivity
QVQLVESGGGLVQAGGRLRLSCAATGRTFRTYVMGWYRQGPGKEREMFAAITWSAGRTYYADSVKGRFTISRDNAQNTVYLQMNSLKPEDTAVYYCATLPTYYLRSYGLDYWGQGTQVTVSS	high polyreactivity
QVQLVESGGGLVQAGGRLRLSCAATGRTFWENAMGWYRQAPGKERELVAAISGDSGSTYYADSVKGRFTISRDNAKNTVYLQMNSLKPEDTAVYYCAADSDRDDSYPYYYWGQGTQVTVSS	low polyreactivity
QVQLVESGGGLVQAGGRLRLSFAASGFTFRYYAMGWYRQAPGKEREFVAAIRSSGTTTSYADSVKGRFTISRDNAKNTVYLHMKSLKPEDTAVYYCAKVSSSSYVEHRYGYWGQGTQVTVSS	high polyreactivity
QVQLVESGGGLVQAGGRLRLSWAASGSTFFGNAMGWYRQAPGKERELVAVITKGGGSTYYADSVKGRFTISRDNAKNTVYLQMNSLKPEDTAVYYCAKTYTSGYHRRYDYWGQGTQVTVSS	low polyreactivity
QVQLVESGGGLVQAGGRLRLTCAASGRIFYRYAMGWYRQAPGKERELVASITRSGITHYADSVKGRFTISRDNAKNTVYLQMNSLKPEDTAVYYCNARRGSPAPYDYWGKGTQVTVSS	high polyreactivity
QVQLVESGGGLVQAGGRLSLSCAASGSTFSPYAMGWYRQAPGKEREFVADISWPGGTTYYADSVKGRFTISRDNAKNTVYLQMNSLKPEDTAVYYCAVTYWDYTFQITYEYWGQGTQVTVSS	low polyreactivity
QVQLVESGGGLVQAGGRRRLSCAASGSTLRDYVMGWYRQAPGKERELVAAITGRVDDTYYADSVKGRFTISRDNAKNTVYLQMNSLKPEDTAGYYCAADYSVTLRIGGFYWFYAFDYWGQGSQVTVSS	low polyreactivity
QVQLVESGGGLVQAGGRSCAASGSTFRPYAMGWYRQAPGKEREFVAAISWRGGRTYYADSVKGRFTISRDNAKNTVYLQMNSLKPEDTAVYYCAVDPSIYRLSAYYYDYWGQGTQVTVSS	low polyreactivity
QVQLVESGGGLVQAGGSFRLSCAASGRIFSPNAMGWYRQAPGKEREFVAAITWRAGTTYYADSVKGRFTISRDNAKNTVYLLMNSLKPEDTAVYYCAAGRRLGYGYWGQGTQVTVSS	high polyreactivity
QVQLVESGGGLVQAGGSFRLSCAASGSIFDGYAMGWYRQAPGKERELVAAISSGGDSTYYADSVKGRFTISRDNAKNTVYLQMNSLKPEDTAVYYCNADSLVGHSYDYWGQGTQVTVSS	low polyreactivity
QVQLVESGGGLVQAGGSFRLSCAASGSIFVVYAMGWYRQAPGKERELVAAITSGGSTYYADSVKGRFTISRDNAKNTVYLQMNSLKPEDTAVYYCNAKRTGPWFLHVPVYYWGQGTQVTVSS	low polyreactivity
QVQLVESGGGLVQAGGSHRISCAASGSTFPGYPMGWYRQAPGKERELVAAGGSTYYADSVKGRFTISRDNAKNTVYLQINSLKPEDTAVYYCAATWGSVQKGTYYYWGQGTQVTVSS	low polyreactivity
QVQLVESGGGLVQAGGSHRLSCAASGFIFYVYAMGWYRQAPGKERELVATINGRRSRTYYADSVKGRFTISRDNAKNTVYLQMNSLKPEDTAVYYCAAVAWVLRYGRGDYWGQGTQVTVSL	high polyreactivity
QVQLVESGGGLVQAGGSHRLSCAASGFTFDFYAMGWYRQAPGKERELVAAISKNDGTTYYADSVKGRFTISRDNAKNTVYLLLNRLKPEDSAVYYCAAESGYPVYTYVSSGDYWGQGTQVTGSS	low polyreactivity
QVQLVESGGGLVQAGGSHRLSCAASGFTFGYYVMGWYRQAPGKERELVAAISKRGSSTYYADCVKGRFTISRDNANTTVYLQMNSLKPVDTAVYYCAADGVYSHKDGHWGQGTQVTVSS	high polyreactivity
QVQLVESGGGLVQAGGSHRLSCAASGFTFRRNAMGWYRQAPGKERELVAAISWSGGSTYYADSVKGRFTISRDNAKNTVYLQMNSLKPEDTAVYYCAAYDYRHLEDKYDYWGQGTQVTVSS	high polyreactivity
QVQLVESGGGLVQAGGSHRLSCAASGFTFSAYTMGWYRQAPGKERELVAAISWRGTSTYYADSVKGRFTISRDNAKNTVYLQMNSLKPEDTAVYYCAVRWPSARIPVKLDYWGQGTQVNVSS	high polyreactivity
QVQLVESGGGLVQAGGSHRLSCAASGFTLRYYSMGRNRPATGKERELVAPISFRGVRTYYADSVKGRFTISRDNAKNTVYLQMNSLKPEDTAVYYCAAASRRGVLYPSLPVLPDDYWGQGTQVTVSS	high polyreactivity
QVQLVESGGGLVQAGGSHRLSCAASGGILETNAMGWYRQAPGKERELVAAIDFSAGSTYYADSVKGRFTISRDNAKNTVYLQMNSLKPEDTAVYYCAAESQGPKDDYLWGWHIYYYWGQGSQVTVSS	low polyreactivity
